# Patent publication US9045559B2, “Method for screening inhibitors of interleukin-32 (IL-32)” (Yeda Research and Development Co. Ltd, priority 2005, dated 2015)
# “Also recorded” adds a separate entry of the source. No end group written: not given here.
# T1: PR-3 (Homo sapiens, UniProt P24158)
# T1 sequence (P24158 28-248): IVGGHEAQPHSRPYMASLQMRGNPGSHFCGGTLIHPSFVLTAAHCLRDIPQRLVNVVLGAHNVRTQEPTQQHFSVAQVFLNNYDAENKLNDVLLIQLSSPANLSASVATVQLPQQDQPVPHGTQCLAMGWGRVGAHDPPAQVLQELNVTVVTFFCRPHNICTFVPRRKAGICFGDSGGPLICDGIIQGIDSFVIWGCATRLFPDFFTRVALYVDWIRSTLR
# T2: PR-3 (Homo sapiens, UniProt P24158)
# T2 construct: tissue Athens Research and Technology
# T2 sequence (P24158 28-248 limits assumed): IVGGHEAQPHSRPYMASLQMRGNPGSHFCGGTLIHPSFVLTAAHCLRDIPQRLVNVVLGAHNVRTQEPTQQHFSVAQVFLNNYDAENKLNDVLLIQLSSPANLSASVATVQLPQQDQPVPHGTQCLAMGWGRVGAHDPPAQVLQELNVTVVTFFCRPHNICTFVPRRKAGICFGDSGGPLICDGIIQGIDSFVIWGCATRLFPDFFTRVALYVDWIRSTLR
# T3: ^125I-IL-32 (Homo sapiens, UniProt P24001)
# T3 construct: made in house; host or cells: E. coli (IL-32α)
# T3 sequence (P24001 1-131 isoform P24001-4): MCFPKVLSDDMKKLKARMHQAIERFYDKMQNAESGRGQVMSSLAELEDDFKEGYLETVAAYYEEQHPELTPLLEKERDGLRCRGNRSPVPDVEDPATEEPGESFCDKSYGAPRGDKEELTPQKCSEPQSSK
# T3 sequence (P24158 28-248 partner limits assumed): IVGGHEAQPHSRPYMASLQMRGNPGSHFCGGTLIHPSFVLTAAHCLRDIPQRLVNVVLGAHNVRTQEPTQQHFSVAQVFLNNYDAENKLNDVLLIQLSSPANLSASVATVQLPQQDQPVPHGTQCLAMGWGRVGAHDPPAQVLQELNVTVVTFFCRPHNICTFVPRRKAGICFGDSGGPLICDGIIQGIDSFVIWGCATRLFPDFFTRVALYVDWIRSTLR
# Tests used:
# PR-3 [1] = biological target: T1, PR-3; settings: cited from earlier work; for kI for PR-3: Kam, 1992
# IL-32 responsive cells = test: Biological activity of IL-32 and its proteolytic fragments (summary statement referring to Example 8); type: cell-based; settings: for biological activity compared to the intact IL-32 protein: fragments generated by PR-3 cleavage
# From the text: The cleavage of IL-32 and the consequent enhancement of the biological activity were both blocked by the action of PMSF.
# For the purpose of the present description the expression “biological activity of IL-32” refers inter alia to at least one of the following biological properties:
# (i) induction of MIP-2, (ii) induction of TNF, and (iii) induction of IL-8.
# PR-3 [2] = biological target: T2, PR-3; test: Inhibition of the proteolytic activity of PR-3 by PMSF (cleavage of 125I-IL-32); type: biochemical; settings: PR-3 pre-incubated with PMSF 1 mM, 10 min at 37° C.; then 1 and 5 min with 125I-IL-32
# Procedure: Lanes 1-4 show ^125I-IL-32 following incubation with urinary PR-3 for 1 and 5 min., either not treated (Lanes 1 and 2) or pre-treated with PMSF (Lanes 3 and 4). Lanes 7-10 show ^125I-IL-32 following incubation with commercial PR-3 for 1 and 5 min., either not treated (Lanes 9 and 10) or pre-treated with PMSF (Lanes 7 and 8). Molecular weight markers (in kDa; lane 5) are indicated at the right side.
# The experiment presented in FIG. 6 was performed as described in examples 5 and 6, except that PR-3 was pre-incubated with PMSF (final concentration of 1 mM, 10 min at 37° C.) prior to the incubation with ^125I-IL-32.
# Raw 264.7 cells = test: MIP-2 secretion by mouse macrophage Raw 264.7 cells stimulated with IL-32 or PR-3-pretreated IL-32; type: cell-based; settings: IL-32 20 or 200 ng/ml; PR-3 100 ng/ml, 5 min pretreatment; 16-20 h; polymyxin B 5 μg/ml
# Procedure: Mouse macrophage Raw 264.7 cell line were seeded in a 96 well plate and incubated with IL-32 (20 or 200 ng/ml), IL-32 pretreated with PR-3 (100 ng/ml) for 5 min. or with PR-3 alone as the a control, and MIP-2 secreted into the cell culture medium was measured. […] PR-3 alone had no effect on the cells.
# Mouse macrophage Raw 264.7 cell line (American Type Culture Collection, ATCC) was maintained in RP MI-1640 medium containing 10% FCS. Bioassays were performed in 96 well plates. Briefly, Raw cells (5×10^5/ml, 0.1 ml/per well) were seeded and cultured until cells adhered to the plate. The medium was removed and the cells were then stimulated with fresh medium (without FCS) containing different concentration of IL-32 or IL-32 pre-treated with PR-3 for 5 min at room temperature in the presence 5 μg/ml of the LPS blocker polymyxin B (Bedford Laboratories, Bedford, Ohio). The plates were incubated at 37° C. with 5% CO2 for 16-20 h and then the culture supernatants were collected to measure MIP-2 released by the cell culture.
# [3] = test system: human peripheral blood mononuclear cells (PBMC); test: IL-8 secretion by human PBMC stimulated with IL-32 or PR-3-pretreated IL-32; type: cell-based; settings: IL-32 20 or 200 ng/ml; PR-3 100 ng/ml, 5 min pretreatment
# Procedure: Human PBMC cells were seeded in 96 well plates and incubated with IL-32 (20 or 200 ng/ml), IL-32 pretreated with PR-3 (100 ng/ml) for 5 min. or with PR-3 alone as the a control. The content of IL-8 into the cell culture medium was measured.
# Similar enhancement of IL-32 activity by pre-treatment with PR-3 was shown in an experiment carried out with human peripheral blood mononuclear cells (PBMC). PBMC were prepared as previously described [Kim, 2005 #36] and seeded at a concentration of 5×10^5 cells per well in 96 well plates. The experimental setting of stimulation with IL-32 and IL-32 pre treated with PR-3 was identical to that described above for the mouse Raw cells. After stimulation of the human PBMC cells with either IL-32 or IL-32 pre treated with PR-3, the culture supernatants were collected to measure human IL-8 released by the cells.
# ^125I-IL-32 = biological target: T3, ^125I-IL-32; test: Kinetics of degradation of 125I-IL-32 by urinary and commercial PR-3 (SDS-PAGE, autoradiography); type: biochemical
# Procedure: After 1 minute of incubation with PR-3 the 20 kDa IL-32 (Lane 1) was cleaved into two cleavage products of 16 and 13 kDa (Lane 2). After 5 min. (Lane 3) the band corresponding to the intact IL-32 disappeared and the cleavage products remained stable for at least 60 min. (lanes 3, 4, 6, and 7). The resulting ^125I-IL-32 fragments of apparent MW of 20 kDa, 16 kDa and 13 kDa are indicated on the left side of the FIG.
# The experiment was carried out essentially as indicated in FIG. 4 (Example 5) except, that incubation of PR-3 and IL32 was limited to up to 5 minutes and that both urinary and commercial PR-3 were used. Urinary (Lines 1-3) or commercial PR-3 (Lines 5-7) were incubated with ^125I-IL-32 for 0, 1 and 5 minutes.
# Affinity purified urinary PR-3 (elution 3 fraction from Example 1, FIG. 1, 50 μl) was added to ^125I-IL-32 (250,000 cpm in 10 μl of gelatin solution) and incubated at 37° C. for 0, 1, 5, 15, 30, and 60 min. (FIG. 4). Degradation was stopped by the addition of SDS-PAGE sample buffer and by boiling for 10 min. Samples containing ^125I-IL-32 and PR-3 incubated at different periods of time (0-60 min.) were resolved on 12% SDS-PAGE under reducing conditions. The gel was dried and autoradiographed. The results summarized on FIG. 4 show the reduction in the 20 kDa band representing intact IL-32 (FIG. 4, lane 1) and the increase in the levels of a 16 and 13 kDa IL-32 cleavage products after a 1-minute incubation with PR-3 (FIG. 4, lane 2).
# Urinary PR-3 or commercial PR-3 (Athens Research and Technology) were incubated with ^125I-IL-32 for 0, 1 and 5 min. Digestion was stopped by the addition of SDS-PAGE sample buffer and by boiling for 10 min. The samples were resolved on SDS-PAGE under reducing conditions. The gel was dried and autoradiographed. […] This difference is probably due to a different specific activity of urinary vs. commercial PR3.
molecule,measurement,setting,value
"Elafin: a human skin derived peptide that inhibits human leukocyte elastase (AQEPVKGPVSTKPGSCPIILIRCAMLNPPNRCLKDTDCPGIKKCCEGSCGMACFVPQ; ends and bridges not checked; cysteine pairing not given here; UniProt P19957 61-117, looked up)",IC50,"PR-3 [1]; Wiedow, 1991, Zani, 2004",9.5 nM
same,potency compared with antileukoprotease and eglin C,PR-3 [1]; inhibition of PR-3,more than 100 fold
"MCFPKVLSDDMKKLKARMHQAIERFYDKMQNAESGRGQVMSSLAELEDDFKEGYLET (listed as Homo sapiens) [13 kDa (SEQ ID NO: 1), supposed N-terminal fragment of IL-32 generated by PR-3]",biological activity compared to the intact IL-32 protein,IL-32 responsive cells,enhanced biological activity
"O=c1oc(Cl)c(Cl)c2ccccc12 [3,4-dichloroisocoumarin]",kI for PR-3,PR-3 [1],2600 M⁻¹ s⁻¹
Nc1ccc2c(Cl)c(OCCBr)oc(=O)c2c1 [7-amino-4-chloro-3-(2-bromoethoxy) isocoumarin],kI for PR-3,PR-3 [1],4700 M⁻¹ s⁻¹
Cc1ccc(C(=O)Nc2ccc(S(=O)(=O)O)c3cc(S(=O)(=O)O)cc(S(=O)(=O)O)c23)cc1NC(=O)c1cccc(NC(=O)Nc2cccc(C(=O)Nc3cc(C(=O)Nc4ccc(S(=O)(=O)O)c5cc(S(=O)(=O)O)cc(S(=O)(=O)O)c45)ccc3C)c2)c1 [Suramin],Ki,"PR-3 [1]; Cadene, 1997",500 nM
"O=S(=O)(F)Cc1ccccc1 [PMSF, phenyl methyl sulfonyl fluoride]",cleavage of IL-32 by urinary and commercial PR-3,PR-3 [2],completely abolished; also recorded: completely blocked
same,enhancement of the biological activity of IL-32 following cleavage by PR-3,IL-32 responsive cells; action of PMSF,blocked
"IL-32: recombinant human IL-32α produced in E. coli, about 20 kDa (protein) MCFPKVLSDDMKKLKARMHQAIERFYDKMQNAESGRGQVMSSLAELEDDFKEGYLETVAAYYEEQHPELTPLLEKERDGLRCRGNRSPVPDVEDPATEEPGESFCDKSYGAPRGDKEELTPQKCSEPQSSK",MIP-2 secreted into the cell culture medium,Raw 264.7 cells,induced the secretion of MIP-2
same,IL-8 secreted into the cell culture medium,[3],induced the secretion of IL-8
"VAAYYEEQHPELTPLLEKERDGLRCRGNRSPVPDVEDPATEEPGESFCDKSYGAPR GDKEELTPQKCSEPQSSK (protein, listed as Homo sapiens, C-terminal fragment of IL-32 generated by PR-3) VAAYYEEQHPELTPLLEKERDGLRCRGNRSPVPDVEDPATEEPGESFCDKSYGAPRGDKEELTPQKCSEPQSSK",biological activity compared to the intact IL-32 protein,IL-32 responsive cells,enhanced biological activity
"PR-3: granule serine protease, source (urinary or commercial) not stated at these places (protein) AEIVGGHEAQPHSRPYMASLQMRGNPGSHFCGGTLIHPSFVLTAAHCLRDIPQRLVNVVLGAHNVRTQEPTQQHFSVAQVFLNNYDAENKLNDVLLIQLSSPANLSASVATVQLPQQDQPVPHGTQCLAMGWGRVGAHDPPAQVLQELNVTVVTFFCRPHNICTFVPRRKAGICFGDSGGPLICDGIIQGIDSFVIWGCATRLFPDFFTRVALYVDWIRSTLRRVEAKGRP",MIP-2 secreted into the cell culture medium,Raw 264.7 cells,no effect
same,digestion of IL-32 after overnight incubation with PR-3,"^125I-IL-32; overnight at 4° C., no product higher than the 10 kDa marker",complete digestion
same,IL-8 secreted into the cell culture medium,[3],did not induce IL-8
"MNEI: a 42 kDa serpin superfamily member (protein, UniProt P30740 1-379, looked up) Leukocyte elastase inhibitor: MEQLSSANTRFALDLFLALSENNPAGNIFISPFSISSAMAMVFLGTRGNTAAQLSKTFHFNTVEEVHSRFQSLNADINKRGASYILKLANRLYGEKTYNFLPEFLVSTQKTYGADLASVDFQHASEDARKTINQWVKGQTEGKIPELLASGMVDNMTKLVLVNAIYFKGNWKDKFMKEATTNAPFRLNKKDRKTVKMMYQKKKFAYGYIEDLKCRVLELPYQGEELSMVILLPDDIEDESTGLKKIEEQLTLEKLHEWTKPENLDFIEVNVSLPRFKLEESYTLNSDLARLGVQDLFNSSKADLSGMSGARDIFISKIVHKSFVEVNEEGTEAAAATAGIATFCMLMPEENFTADHPFLFFIRHNSSGSILFLGRFSSP",rate of PR-3 inhibition,"PR-3 [1]; Cooley, 2001",> 10^7 M^−1·s^−1
"urinary PR-3: human Proteinase-3 (28-32 kDa) affinity purified from human urine on an IL-32 column, elution fraction 3 (protein) IVGGHEAQPHSRPYMASLQMRGNPGSHFCGGTLIHPSFVLTAAHCLRDIPQRLVNVVLGAHNVRTQEPTQQHFSVAQVFLNNYDAENKLNDVLLIQLSSPANLSASVATVQLPQQDQPVPHGTQCLAMGWGRVGAHDPPAQVLQELNVTVVTFFCRPHNICTFVPRRKAGICFGDSGGPLICDGIIQGIDSFVIWGCATRLFPDFFTRVALYVDWIRSTLR",incubation time to complete disappearance of the 20 kDa intact IL-32 band,"^125I-IL-32; 37° C., cleaved into 16 and 13 kDa fragments",5 min
commercial PR-3: commercially available human neutrophil derived PR-3 (Athens Research and Technology) (protein) IVGGHEAQPHSRPYMASLQMRGNPGSHFCGGTLIHPSFVLTAAHCLRDIPQRLVNVVLGAHNVRTQEPTQQHFSVAQVFLNNYDAENKLNDVLLIQLSSPANLSASVATVQLPQQDQPVPHGTQCLAMGWGRVGAHDPPAQVLQELNVTVVTFFCRPHNICTFVPRRKAGICFGDSGGPLICDGIIQGIDSFVIWGCATRLFPDFFTRVALYVDWIRSTLR,"potency of IL-32 cleavage, commercial vs urinary PR-3","^125I-IL-32; incubation 0, 1 and 5 min",more potent than the urinary PR-3; also recorded: more efficient than the urine-derived PR-3
